One block for each binder: values may come before it.
Experiments:
[1] = target: T1, hSIRPα expressed on primary human cells (human, UniProt P78324 31-504); test: flow cytometry, primary human granulocytes, donor 1
T1 construct: whole, on cells; also called hSIRPα on primary human CD14+ monocytes; on primary human granulocytes
Method: Next, cells were centrifuged at 300 g for 7 minutes. Supernatants containing lysed RBCs were removed by aspiration, and the remaining blood cells were gently resuspended in RBC lysis buffer and kept on ice for 1 minute. RBC lysis was neutralized by adding assay medium (IMDM (Gibco) supplemented with 10% Fetal Bovine Serum (Gibco) and Pen/Strep (Gibco)). Blood cells were centrifuged at 300 g for 6 minutes and supernatants were removed by aspiration to remove remaining RBCs as much as possible. Subsequently, erythrocyte-lysed blood cells were resuspended in assay medium containing 10 ng/mL IFNγ and cells were incubated for 1 hour at 37° C., 5% CO₂ and 95% humidity. […] The percentage of granulocytes present in the cell suspension was determined by flow cytometry on the FACSCanto II (BD Biosciences) based on high forward scatter (FSC) and side scatter (SSC). Binding of hSIRPα.50A to human granulocytes was assessed by incubating the cells for 30 minutes at 4° C. with hSIRPα.50A antibody (25 μg/mL and dilutions thereof) in PBS/1% BSA containing 10% autologous serum (PBS/1% BSA/10% serum). […] After this labeling procedure, cells were washed two times, resuspended in PBS/1% BSA/10% serum and analysed by flow cytometry on the FACSCanto II (BD Biosciences). Data were processed and analysed with FlowJo V10 software (FlowJo, LLC). […]

human SIRPα variant 2 [2] = target: T2, human SIRPα variant 2 (human, UniProt P78324 31-504); test: flow cytometry, blockade of DyLight488-hCD47/Fc binding to THP-1 cells
T2 construct: full length ORF on transfected CHO-K1 cells; also called hSIRPαV2; SIRPαV2
T2 sequence (P78324 other isoform, or with tags, fused parts or gaps mutant limits assumed): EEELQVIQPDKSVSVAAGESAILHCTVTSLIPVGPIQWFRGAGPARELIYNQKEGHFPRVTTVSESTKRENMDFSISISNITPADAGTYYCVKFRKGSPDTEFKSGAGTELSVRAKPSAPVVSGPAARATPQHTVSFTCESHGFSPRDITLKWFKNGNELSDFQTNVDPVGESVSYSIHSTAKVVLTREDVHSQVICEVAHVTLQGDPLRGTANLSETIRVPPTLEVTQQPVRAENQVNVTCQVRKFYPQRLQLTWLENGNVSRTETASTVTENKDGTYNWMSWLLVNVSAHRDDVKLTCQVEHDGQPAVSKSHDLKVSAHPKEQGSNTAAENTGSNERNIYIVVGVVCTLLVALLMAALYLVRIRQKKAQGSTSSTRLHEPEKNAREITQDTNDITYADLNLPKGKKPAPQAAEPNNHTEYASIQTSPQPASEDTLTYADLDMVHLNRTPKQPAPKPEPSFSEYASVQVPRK
How it was run: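 THP-1 or U-937 monocyte cells in 96-well round-bottom plates were incubated for 45 minutes at 4 °C in PBS/1% BSA with FcR Blocking Reagent and a dilution series of anti-SIRPα antibody. Cells were washed, resuspended with 0.1 μg/mL DAPI and measured by flow cytometry, with analysis in FlowJo. IC50 is the antibody concentration giving half-maximal inhibition of CD47/Fc binding.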

human SIRPα variant 1 = target: T3, human SIRPα variant 1 (human, UniProt P78324 31-504); test: CELISA, CHO-K1 transfectants
T3 construct: full length ORF on transfected CHO-K1 or HEK293 cells; entry includes the signal peptide; also called hSIRPαV1; SIRPαV1
T3 sequence (P78324 31-504 limits assumed, change not shown): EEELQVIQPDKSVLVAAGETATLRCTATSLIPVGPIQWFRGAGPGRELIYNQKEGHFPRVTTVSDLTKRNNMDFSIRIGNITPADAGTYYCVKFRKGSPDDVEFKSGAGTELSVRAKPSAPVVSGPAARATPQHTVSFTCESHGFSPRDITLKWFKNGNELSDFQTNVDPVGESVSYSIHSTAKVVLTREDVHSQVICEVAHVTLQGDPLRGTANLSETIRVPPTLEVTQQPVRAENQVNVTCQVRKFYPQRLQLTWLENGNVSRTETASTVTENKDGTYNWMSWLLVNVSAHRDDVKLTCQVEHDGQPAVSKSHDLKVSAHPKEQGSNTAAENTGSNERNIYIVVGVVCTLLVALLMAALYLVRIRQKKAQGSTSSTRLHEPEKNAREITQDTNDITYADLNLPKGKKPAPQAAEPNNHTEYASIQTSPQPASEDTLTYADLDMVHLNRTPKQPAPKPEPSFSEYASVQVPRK
Method: (§1) Reactivity was confirmed using CHO-K1 cells (ATCC CCL-61) that had been transiently transfected, using Lipofectamine 2000, with cDNA encoding the full length open reading frame of hSIRPαV1, hSIRPαV2, hSIRPβ1, hSIRPβL, and hSIRPγ subcloned into the pCI-neo vector (Promega, Madison, Wis.). CHO-K1.hSIRPαV1, CHO-K1.hSIRPαV2, CHO-K1.hSIRPβ1, CHO-K1.hSIRPβL, and CHO-K1.hSIRPγ cells were seeded in culture medium (DMEM-F12 (Gibco) supplemented with 5% New Born Calf Serum (BioWest) and Pen/Strep (Gibco)) in 96-well flat-bottom tissue culture plates and incubated at 37° C., 5% CO₂ and 95% humidity for 24 hours. Subsequently, culture medium was removed and cells were incubated for 1 hour at 37° C., 5% CO₂ and 95% humidity with purified hSIRPα antibodies (used at 10 μg/mL and dilutions thereof). Next, cells were washed with PBS-T and incubated for 1 hour at 37° C., 5% CO₂ and 95% humidity with goat-anti-mouse IgG-HRP (Southern Biotech). Subsequently, cells were washed three times with PBS-T and immunoreactivity against hSIRPαV1, hSIRPαV2, hSIRPβ1, hSIRPβL, and hSIRPγ was visualized with TMB Stabilized Chromogen (Invitrogen). Reactions were stopped with 0.5 M H₂SO₄ and absorbances were read at 450 and 610 nm.
(§2) The KWAR23 antibody cross-reacts with all members of the SIRP receptor family tested: it binds to hSIRPαV1, hSIRPαV2, hSIRPβ1, hSIRPβL, and hSIRPγ.

human SIRPγ = target: T4, human SIRPγ (human, UniProt Q9P1W8 29-387); test: CELISA, CHO-K1 transfectants
T4 construct: on transfected CHO-K1 cells; also called hSIRPγ
T4 sequence (Q9P1W8 29-387 limits assumed): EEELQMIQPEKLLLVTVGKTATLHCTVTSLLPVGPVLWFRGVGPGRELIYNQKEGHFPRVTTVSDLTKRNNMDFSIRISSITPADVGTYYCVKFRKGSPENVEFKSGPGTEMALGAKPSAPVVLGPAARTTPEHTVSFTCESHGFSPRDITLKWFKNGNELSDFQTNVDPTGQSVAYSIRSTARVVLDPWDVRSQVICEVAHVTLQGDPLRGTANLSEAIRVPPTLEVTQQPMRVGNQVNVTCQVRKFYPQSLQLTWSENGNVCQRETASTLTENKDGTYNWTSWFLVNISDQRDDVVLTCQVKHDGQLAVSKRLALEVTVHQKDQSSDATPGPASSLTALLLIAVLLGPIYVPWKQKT
Method: as §1, §2

human SIRPα variant 2 [3] = target: T2, human SIRPα variant 2; test: CELISA, CHO-K1 transfectants
Method: as §1, §2

[4] = target: T5, hSIRPβ1 transcript variant 3/hSIRPβL (human, UniProt Q5TFQ8 30-398); test: CELISA, CHO-K1 transfectants
T5 construct: also called human SIRPβL
T5 sequence (Q5TFQ8 30-398 limits assumed, change not shown): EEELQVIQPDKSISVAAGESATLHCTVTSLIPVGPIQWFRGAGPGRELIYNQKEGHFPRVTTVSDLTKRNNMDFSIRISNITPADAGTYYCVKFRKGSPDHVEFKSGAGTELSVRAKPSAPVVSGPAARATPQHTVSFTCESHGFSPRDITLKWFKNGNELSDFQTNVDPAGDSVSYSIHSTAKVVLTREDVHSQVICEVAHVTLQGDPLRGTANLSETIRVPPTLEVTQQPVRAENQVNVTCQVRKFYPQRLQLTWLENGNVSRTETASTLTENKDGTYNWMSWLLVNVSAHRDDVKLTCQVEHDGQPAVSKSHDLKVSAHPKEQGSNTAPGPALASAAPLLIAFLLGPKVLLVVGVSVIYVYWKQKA
Method: as §1, §2

T1 sequence (P78324 31-504): as the sequence (P78324 31-504 limits assumed, change not shown) above

EC50 [1]: 1.23 nM | IC50 (human SIRPα variant 2 [2]): 0.646 nM
B1: hSIRPα.40A (antibody, mouse IgG1, kappa, V domains shown)
VH: EVQFQQSGTVLARPGTSVKMSCKASGSTFTSYWMHWVKQGPGQGLQWIGAIYPVNNDTTYNQKFKGKAELTVVTSTSTAYMEVSSLTNEDSAVYYCTRSFYYSLDAAWFVYWGQGTLVTVSA
VL: DIQMTQSPSSLSASLGERVSLTCRASQDIGSRLNWLQQEPDGTIKRLIYATSSLDSGVPKRFSGSRSGSDYSLTISGLESEDFVDYYCLQYASSPFTFGGGTKLEINR
notes: mouse antibody, full chains without signal peptide; also called mouse hSIRPα.40A

EC50 (human SIRPα variant 1): 0.067 nM | EC50 (human SIRPγ): 0.043 nM | EC50 (human SIRPα variant 2 [3]): 0.062 nM | EC50 [4]: 0.097 nM
B2: KWAR23 (antibody, V domains shown)
VH: EVQLQQSGAELVKPGASVKLSCTASGFNIKDYYIHWVQQRTEQGLEWIGRIDPEDGETKYAPKFQDKATITADTSSNTAYLHLSSLTSEDTAVYYCARWGAYWGQGTLVTVSS
VL: QIVLTQSPAIMSASPGEKVTLTCSASSSVSSSYLYWYQQKPGSSPKLWIYSTSNLASGVPARFSGSGSGTSYSLTISSMEAEDAASYFCHQWSSYPRTFGAGTKLELK

EC50 (human SIRPα variant 1): 1.63 nM | EC50 (human SIRPγ): 1.48 nM | EC50 (human SIRPα variant 2 [3]): 1.63 nM | EC50 [4]: 0.639 nM | EC50 [1]: 4.3 nM | IC50 (human SIRPα variant 2 [2]): 7.83 nM
B3: hSIRPα.50A (antibody, V domains shown)
VH: QVQLQQSGPELVKPGASVRISCKASGFTFTNYYIHWVKQRPGQGLEWIGWIYPGNVNTKYNEKFKAKATLTADKSSTTAYMQLSSLASEDSAVYFCARPTIIATDFDVWGAGTTVTVSS
VL: DIVMTQSHKFMSTSVGDRVNITCKASQGVGTAVGWYQQKPGQSPRLLIYWASTRHTGVPDRFTGSGSGTDFSLAISNVQSEDLADYFCQQYSTYPFTFGGGTNLEIK
notes: light chain constant domain not tied; also called mouse hSIRPα.50A; hSIRPα.50A.mIgG1
